Here are results for 2 molecules from patent US20240343799A1 (Innovent, published 2024).

A word on the EC50 (read off the curve): it is the concentration giving half of the maximal effect. What is called Kd is a measure of binding affinity in units of concentration.

Assay [1] addresses T1, CD79b on the surface of B-cell non-Hodgkin's lymphoma cells (human, UniProt P40259 29-229).
T1 construct: whole, on cells; Endogenous CD79b of the cell lines; on cells it stands in the B cell receptor complex with CD79a; also called CD79b on Ramos cells; CD79b on BJAB cells
T1 sequence (looked up): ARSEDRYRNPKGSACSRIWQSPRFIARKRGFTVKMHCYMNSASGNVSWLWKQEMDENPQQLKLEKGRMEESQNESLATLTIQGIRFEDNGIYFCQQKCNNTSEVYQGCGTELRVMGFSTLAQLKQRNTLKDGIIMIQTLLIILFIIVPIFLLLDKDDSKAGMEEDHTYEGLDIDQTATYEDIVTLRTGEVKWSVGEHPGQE
The experiment in a line: flow cytometry on BJAB cells, goat anti-human IgG PE. As for the experimental part: (§1) Ramos (ATCC, Cat #CRL-1596) and BJAB (AddexBio, USA, Cat #C0003016) were passaged according to the conventional procedures. Cells were counted after centrifugation and resuspension, adjusted to a density of 4×10⁶ cells/mL, poured into a loading tank, and seeded to a 96-well plate at 50 μL/well using a multichannel pipettor. 50 μL of the antibody sample diluted in gradient was added to the 50 μL of cells in each well, and the mixture was then incubated in an incubator at 5% CO₂ and 37° C. for 30 min. The mixture was centrifuged at 400 g for 5 min, then 200 μL of PBS was added, and the resulting mixture was centrifuged at 400 g for 5 min. This procedure was repeated 3 times. Goat anti-human IgG PE (1:200) was added, and the mixture was incubated for 30 min in the dark at room temperature. The mixture was washed with 200 μL of PBS twice, centrifuged, and then resuspended in 100 μL of PBS, and the values were read using a flow cytometer. The values were fitted to obtain a curve and EC₅₀ values were calculated.
(§2) The binding of the humanized antibodies to Ramos and BJAB cells was detected by flow cytometry. The assay was the same as in Example 4. The binding of the humanized antibodies to CD79b on the surface of Ramos cells is shown in FIG. 3; the binding of the humanized antibodies to CD79b on the surface of BJAB cells is shown in FIG. 4.

Assay [2] addresses T1, CD79b on the surface of B-cell …. Put plainly: flow cytometry on Ramos cells, goat anti-human IgG PE. As for the experimental part: as §1, §2
For orientation: A flow cytometer gives signals particle by particle.

The target of assay [3] is T2, human CD79b (recombinant antigen in the ForteBio assays) (human, UniProt P40259 29-159).
T2 construct: the immunogen was CD79b protein from Sino, Cat #29750-H08H; also called huCD79b
T2 sequence (looked up): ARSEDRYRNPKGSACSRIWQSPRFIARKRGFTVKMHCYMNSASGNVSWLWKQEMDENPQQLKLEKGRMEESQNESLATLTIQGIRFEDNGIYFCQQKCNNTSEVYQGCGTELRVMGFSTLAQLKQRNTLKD
The experiment in a line: BLI (ForteBio), antibody loaded on sensor, antigen in solution. As for the experimental part: The equilibrium dissociation constants (KD) for binding of the antibodies of the present invention to CD79b were determined by bio-layer interferometry (ForteBio). A ForteBio affinity assay of prior art was performed (Estep, P., et al., “High throughput solution Based measurement of antibody-antigen affinity and epitope binning”, MAbs, 2013.5 (2): 270-8).
(§3) Briefly, an AMQ (Pall, 1506091) sensor was equilibrated offline in an assay buffer for 30 min and then equilibrated online for 60 s to establish a baseline. The purified antibodies obtained as described above were each loaded online onto an AHQ sensor (ForteBio) for the ForteBio affinity assay. The sensor with the loaded antibody was then exposed to antigen CD79b before transferring the sensor to the assay buffer to measure the dissociation rate. The KD values were analyzed using ForteBio analysis software.
Background: In BLI a coated tip is dipped into the sample, and binding shifts an interference pattern.

For assay [4], the target named is T2, human CD79b (recombinant antigen in the …). Described as above. As for the experimental part:
as §3
The equilibrium dissociation constants (KD) for the binding of the humanized antibodies of the present invention to human CD79b were determined by ForteBio.
The source holds these as a separate data set.

Assay [5] shares this target. Put plainly: BLI (ForteBio).

B1: A7v14b (antibody, V domains shown)
VH: EVQLVQSGAEVKKPGASVKVSCKASGYTFTTYYMNWVRQAPGQGLEWIGMIDPSDSETHYNQKFQGRATLTVDTSTSTAYLELSSLRSEDTAVYYCSRSLAFWGQGTLVTVSS
VL: DIVMTQTPLSLPVTPGQPASISCKSSQSLLDSDGKTYLNWLLQKPGQSPQSLIYLVSKLDSGVPDRFSGSGSGTDFTLKISRVEAEDVGVYYCWQGTHFPQTFGQGTKVEIK
notes: also called CD79b.A7v14b
For B1, the “EC50 (read off the curve)” value in assay [1] is about 3 nM; in assay [2], about 4 nM. Further, the dissociation constant Kd in assay [3] and in assay [4] was 1.84 nM each time.

B2: polmab (antibody, human IgG1, kappa, V domains shown)
VH: EVQLVESGGGLVQPGGSLRLSCAASGYTFSSYWIEWVRQAPGKGLEWIGEILPGGGDTNYNEIFKGRATFSADTSKNTAYLQMNSLRAEDTAVYYCTRRVPIRLDYWGQGTLVTVSS
VL: DIQLTQSPSSLSASVGDRVTITCKASQSVDYEGDSFLNWYQQKPGKAPKLLIYAASNLESGVPSRFSGSGSGTDFTLTISSLQPEDFATYYCQQSNEDPLTFGQGTKVEIKR
In the case of B2, the results for the Kd in assay [5], in assay [3] and in assay [4] were 13.7 nM, 12.7 nM and 12.7 nM, respectively. Further, the “EC50 (read off the curve)” value was about 2 nM in assay [1] and about 3 nM in assay [2].
